1 molecule from patent US20250002577A1 (ONCORESPONSE, published 2025) can be followed below.

The assay has as its target T1, human LILRB2 on cells (human, UniProt Q8N423 22-597).
T1 construct: whole, on cells; also called hLILRB2; LILRB2-HEK293T
The experiment in a line: flow cytometry, AF647-labelled antibody on HEK293T cells stably expressing human LILRB2. The method, then: While LILRB2 expression is mostly restricted to myeloid cells, LILRB1 has a broader expression on immune cell subsets, including B cells, T cells and NK cells.
Frozen cells were removed from storage in vapor phase liquid nitrogen and thawed by gentle swirling in a water bath at 37° C., then resuspended in DMEM media with 10% FBS. Cells were placed in a 15 mL conical tube and centrifuged at 300×g for 5 min, then supernatant was removed. Cells were resuspended in DMEM+10% FBS at a cell density of 2×10⁵ cells/mL in a T75 flask for culturing, and incubated at 37° C., 5% CO₂ for 3 days before passaging. Cells were passaged when the cell density reached 1×10⁶ cell/mL. On the day of the assay, cells were centrifuged, then supernatant was removed. Cells were resuspended in Blocking Buffer B (FACS Buffer containing 10% FBS and 0.5 mg/mL human IgG1 (Athens Research, No. 16-16-090707-1M)+0.05% NaN₃, 5% (w/v)) in a 15 mL conical tube, then incubated at 4° C. for 30 min. […] Cells were incubated with antibodies at 4° C. for 1 h. Cells were washed twice in FACS Buffer (PBS containing 2 mM EDTA+1% FBS+0.05% NaN₃) and then stained with for 10 min with Zombie Violet™ fixable viability dye (BioLegend, No. 423114) at RT, washed with FACS Buffer and resuspend in 75 μL of FACS Buffer for acquisition on a BD FACSymphony™ or BD FACSCanto™ II flow cytometer (BD Biosciences), as described in Example 6.

The term EC50 (read off the curve) denotes the concentration giving half of the maximal effect. Low readings indicate greater potency, high ones weaker potency.

T1 sequence (Q8N423 22-597): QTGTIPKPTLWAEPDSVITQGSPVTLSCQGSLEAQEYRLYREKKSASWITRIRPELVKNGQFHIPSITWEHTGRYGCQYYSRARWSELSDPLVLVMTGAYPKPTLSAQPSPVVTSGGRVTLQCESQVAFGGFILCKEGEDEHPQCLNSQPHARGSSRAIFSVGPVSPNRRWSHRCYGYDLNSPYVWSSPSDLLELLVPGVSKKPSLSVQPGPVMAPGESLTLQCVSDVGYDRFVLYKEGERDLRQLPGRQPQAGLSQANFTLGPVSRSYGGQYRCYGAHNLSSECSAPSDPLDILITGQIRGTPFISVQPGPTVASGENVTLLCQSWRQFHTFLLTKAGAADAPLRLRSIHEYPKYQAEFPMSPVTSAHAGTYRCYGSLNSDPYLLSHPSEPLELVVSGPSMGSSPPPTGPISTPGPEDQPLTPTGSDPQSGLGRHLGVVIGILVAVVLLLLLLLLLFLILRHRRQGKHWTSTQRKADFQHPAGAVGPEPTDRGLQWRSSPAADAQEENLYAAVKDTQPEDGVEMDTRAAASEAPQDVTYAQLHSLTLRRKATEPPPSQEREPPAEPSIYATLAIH

B1: Comp 2 (anti-LILRB2 antibody) (antibody, human IgG1, kappa, V domains shown)
VH: QIQLVQSGPELKKPGETVKISCKASGYTFTNYGMNWVKQAPGKGLKWMGWINTYIGEPIYADDFKGRFAFSLETSASTAYLQINNLKNEDMATYFCARRSDYDGYAMDYWGQGTSVTVSS
VL: DIVMSQSPSSLAVSVGERVTMSCKSSQSLLYSGNQKNYLAWYQQKPGQSPKLLIYWASTRESGVPDRFTGSGSGTDFTLTISSVKAEDLAVYYCQQHDSYPTFGGGSRLEIKR
In the case of B1, the “EC50 (read off the curve)” value is about 0.6 nM.
